Source: article doi:10.1101/2021.11.25.470006 (bioRxiv, 2021)

Experiments:
Experiment in all cases: cryo-EM structure
[1] = biological target: T1, Smc5 (Walker B mutant E1015Q) (S. cerevisiae, UniProt Q08204 1-1093, E1015Q, BS3-crosslinked within the holo-complex)
T1 sequence: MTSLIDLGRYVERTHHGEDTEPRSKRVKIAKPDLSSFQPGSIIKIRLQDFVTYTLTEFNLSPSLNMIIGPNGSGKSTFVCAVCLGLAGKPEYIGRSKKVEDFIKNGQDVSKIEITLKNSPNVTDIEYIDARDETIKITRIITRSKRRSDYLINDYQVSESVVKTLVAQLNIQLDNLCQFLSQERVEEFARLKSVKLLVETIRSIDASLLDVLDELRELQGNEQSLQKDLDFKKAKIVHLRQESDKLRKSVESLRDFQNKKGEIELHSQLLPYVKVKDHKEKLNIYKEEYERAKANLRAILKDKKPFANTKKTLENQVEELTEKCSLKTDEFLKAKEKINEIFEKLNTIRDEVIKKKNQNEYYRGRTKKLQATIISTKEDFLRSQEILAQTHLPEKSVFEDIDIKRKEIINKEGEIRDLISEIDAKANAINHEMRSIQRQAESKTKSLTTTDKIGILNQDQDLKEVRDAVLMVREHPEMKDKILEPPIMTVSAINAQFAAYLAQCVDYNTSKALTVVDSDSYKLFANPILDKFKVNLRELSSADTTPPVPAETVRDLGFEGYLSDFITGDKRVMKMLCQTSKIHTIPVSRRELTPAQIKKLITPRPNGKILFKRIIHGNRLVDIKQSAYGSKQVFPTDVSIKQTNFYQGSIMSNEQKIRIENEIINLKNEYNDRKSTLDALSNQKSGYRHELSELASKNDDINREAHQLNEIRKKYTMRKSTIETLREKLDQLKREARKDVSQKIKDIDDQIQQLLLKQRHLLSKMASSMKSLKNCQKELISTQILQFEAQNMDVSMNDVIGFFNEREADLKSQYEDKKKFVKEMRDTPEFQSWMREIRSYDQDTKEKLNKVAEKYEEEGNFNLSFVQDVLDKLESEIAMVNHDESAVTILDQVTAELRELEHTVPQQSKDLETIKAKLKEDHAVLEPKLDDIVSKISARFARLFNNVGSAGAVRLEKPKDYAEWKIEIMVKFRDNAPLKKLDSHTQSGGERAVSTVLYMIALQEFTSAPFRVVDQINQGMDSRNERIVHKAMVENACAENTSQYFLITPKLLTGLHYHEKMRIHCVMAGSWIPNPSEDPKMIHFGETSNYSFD

Nse1 = biological target: T2, Nse1 (S. cerevisiae, UniProt Q07913 1-336, BS3-crosslinked within the holo-complex)
T2 sequence: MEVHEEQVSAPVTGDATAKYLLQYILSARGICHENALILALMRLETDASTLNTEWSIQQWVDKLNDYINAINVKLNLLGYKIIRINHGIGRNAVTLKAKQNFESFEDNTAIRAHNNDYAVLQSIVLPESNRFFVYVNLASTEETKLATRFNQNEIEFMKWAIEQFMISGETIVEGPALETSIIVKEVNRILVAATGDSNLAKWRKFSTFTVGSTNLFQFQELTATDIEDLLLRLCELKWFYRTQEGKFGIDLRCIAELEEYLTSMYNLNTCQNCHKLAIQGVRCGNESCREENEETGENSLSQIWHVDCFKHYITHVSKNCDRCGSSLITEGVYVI

Nse4 (HALO-tagged) = biological target: T3, Nse4 (HALO-tagged) (S. cerevisiae, UniProt P43124 1-402, BS3-crosslinked within the holo-complex)
T3 sequence: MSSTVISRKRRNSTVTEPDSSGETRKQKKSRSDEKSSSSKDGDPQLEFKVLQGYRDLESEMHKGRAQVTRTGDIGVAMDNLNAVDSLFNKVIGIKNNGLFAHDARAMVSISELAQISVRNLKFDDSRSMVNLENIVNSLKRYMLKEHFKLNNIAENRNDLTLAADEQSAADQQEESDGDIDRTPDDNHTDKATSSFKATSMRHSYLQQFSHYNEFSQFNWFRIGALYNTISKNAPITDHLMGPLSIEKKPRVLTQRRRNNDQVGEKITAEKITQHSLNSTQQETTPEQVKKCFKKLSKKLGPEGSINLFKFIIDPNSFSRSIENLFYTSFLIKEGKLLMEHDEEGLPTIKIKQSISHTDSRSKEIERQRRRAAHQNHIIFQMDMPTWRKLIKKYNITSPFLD

Measured: binding result

B1: Nse3 (natural protein, S. cerevisiae)
chain: MSSIDNDSDVDLTEDLAVAKIVKENPVARKMVRYILSRGESQNSIITRNKLQSVIHEAAREENIAKPSFSKMFMDINAILYNVYGFELQGLPSKNNMNAGGNGSNSNTNKSMPEPLGHRAQKFILLNNVPHSKNFDDFKILQSAHTYEELIVTGEYIGDDIASGTSNTLESKLSTDRDLVYKGVLSVILCIVFFSKNNILHQELIKFLETFGIPSDGSKIAILNITIEDLIKSLEKREYIVRLEEKSDTDGEVISYRIGRRTQAELGLESLEKLVQEIMGLEKEQTKSLHDDIIKSIGDSYSI
modifications: BS3-crosslinked within the holo-complex
binds: [1] | Nse1 | Nse4 (HALO-tagged)
